Results on three substances are retold here after US8586570B2, “Sox-based kinase sensor” (Massachusetts Institute of Technology, priority 2006, dated 2013).

In general, Km refers to the substrate concentration at which the rate is half of its maximum. What is called Vmax is the rate approached at saturating substrate.

Like-named read-outs stand apart in the source and are kept apart here.

The nature of data set [1]: Fluorescence increase, phosphopeptide vs unphosphorylated peptide at 485 nm. It counts as physicochemical. The following applies: phosphopeptide / unphosphorylated peptide intensity at 485 nm, generally 10 mM Mg2+. Here is the method: (§1) Fluorescence experiments were performed on a Fluoromax 3 from Jobin Yvon. 5 nm emission and excitation slit widths were used. For all experiments, an excitation wavelength of 360 nm was used. Enzyme assays were performed by monitoring emission at 485 nm.
After peptide characterization, emission spectra were obtained for unphosphorylated and phosphorylated peptides under appropriate conditions. The spectra were generally acquired in the presence of 10 mM Mg^2+(although lower Mg^2+concentrations can and have been used as well) and either 0, 0.1 or 1 mM ATP in a preselected buffer (usually 20 mM HEPES, pH 7.4). Relying on the emission spectra the fold fluorescence differences were measured by dividing the fluorescence intensity of the phosphopeptide by the fluorescence intensity of its unphosphorylated counterpart at 485 nm. FIG. 2 depicts the fluorescence spectra of the phosphorylated and unphosphorylated peptides in the appropriate assay mixture: (A) emissions scans of PKCβI-1 (10 μM), 10 mM Mg(II), 3×; (B) emissions scans of PKCβI-1 (10 μM), 10 mM Mg(II), 0 mM ATP, 3×.; (C) fluorescence difference for PKCβI-1 (10 μM), 10 mM Mg(II), 3×; (D) fluorescence increase for PKCβI-1 (10 μM) at 10 mM Mg (II).

Data set [2] deals with T1, PKCα (Homo sapiens, UniProt P17252). The data set can be described thus: Kinetic parameters of the peptides with PKCα (continuous fluorescence assay). It counts as biochemical. The following applies: for Km / Vmax: with PKCα.
Source text: To solve for enzyme kinetic parameters for this reaction, determination of the initial rate of product formation from the increase in fluorescence intensity is necessary. With this sensor, a correction for the decrease in fluorescence intensity due to the starting material being consumed is needed to determine the rate of product formation from the initial slope. The fluorescence intensity at any given point can be determined from the following equation: I(t)=fSs(t)+fPP(t) (1) where I(t) is the fluorescence intensity, S(t) is the amount of substrate in μM, P(t) is the amount of product in μM, fS is the fluorescence intensity per μM of substrate, and fP is fluorescence intensity per μM of product. The amount of substrate and product at any given point are related by: S(t)+P(t)=S0 (2) where S0 is the initial amount of substrate. Substitution of (2) into (1) followed by rearrangement, yields:
[formula] The initial slope of the reaction, dI(t)/dt, was measured within the first 5% of substrate turnover. The constants fP and fS were calculated from the slope of a line of fluorescence intensity versus concentration of P and S, respectively. A linear fit of a Hanes plot ([S]/V vs. […]) was used to find Km and Vmax.
For in vitro applications, the concentration of kinase can range from about 0.5 nM to about 1 μM, typically not more than about 500 nM, and preferably not more than about 250 nM. The concentrations of sensor can vary, but usually ranges between about 0.01 μM to 0.1 mM. Adenosine 5′-triphosphate (ATP) is the preferred source of phosphate, in stock solutions of about 10-100 mM. Because most kinases have Km values for ATP in the range of about 10-150 μM, saturating concentrations of ATP are used to arrive at values of Km and Vmax for the substrates. For in vivo applications, when the sensor is internalized into a cell, sufficient kinases, Mg^2+ and phosphate sources exist in the cytosol. For in vivo sensing, a cellular internalization sequence can be included in the sensor design. Suitable cellular internalization sequences include Penetratins, HIV-Tat domains and poly-arginine sequences (Lindgren, M. et al. Trends Pharmacol. Sci. 2000, 21, 99-103; Wadia, J. S. et al. Curr Opin. Biotech. 2002, 13, 52-56; Carrigan, C. N. Analyt. Biochem. 2005, 341, 290-298).
For applications in which the kinase is dependent on cofactors, a source of cofactor is also included in the sample. For example, for PKC, sources of Ca^2+, phospholipid and diacylglycerol are needed.
as §1

Data set [3] deals with PKC isozymes present in cells. The data set can be described thus: Use of sensor in cell lysates. The source says: In comparison, the chemosensors with the extended recognition domain as disclosed in the present invention for PKCα, PKCα-S9 and PKCα-S10, also have good biophysical properties (Table IV).
In data set [4] the target is T1, PKCα. The settings on record: optimal PKCα peptide substrate selected from the literature; cited from earlier work.

Turning to “Ac-R R R-C(Sox)-G-(p)S F R R K A-NH2 [PKCα-S9(P9)]”, in data set [1], the “Fluorescence Increase” value is given as 3.5 x. Also, in the data set with PKCα [2] (as determined by kinetic parameters, compared with PKCα-S1), the “selectivity for PKCα” value is recorded as “much more selective for PKCα”. Further, in the data set with PKCα [2], the Km was determined as 0.093 ± 0.017 µM and the Vmax came out at 1.8 ± 0.12 µmol/min/mg.
“Ac-Sox-P-G-(p)S F R R R-NH2 [PKCα-S1(P1), reference compound]”: the “Fluorescence Increase” value in data set [1] came out at 5.7 x. Also, the “reactivity in cell lysates” value in data set [3] is listed as “reactive toward many of the PKC isozymes”. For the same substance, in the data set with PKCα [2], the Michaelis constant (Km) stood at 8.6 ± 2.9 µM and the Vmax was 5.9 ± 1.9 µmol/min/mg.
Regarding “RRRKGS*FRRKA (RRRKGSFRRKA) [optimal PKCα peptide substrate selected from the literature]”, in the data set with PKCα [4], the Km was 3.8 µM.
